This note sets out measurements from the DeepSol protein solubility set.

This data set is described as follows: soluble on expression in E. coli; label from the status in PepcDB or PDB records.
“MQMISRITTGISMQYGLSNGTITFDDLIPELLHFGTITPTQISAITTDKLTEIVDGINGLQRKLDSSSEQLEEQLMMFASVYEKTKGVVPGSIIPKDDVYKTQLDALKIKWSKVDSFAKGIVIFLNEMESMEGVTSDDDANIKLSDMAPHLPKFKDWTLEEYNVYAQNQHLRNIHISYPSLNLVYKAVAEFFPYKNSLDGSLLPQVQENINKLNTLAEKIKPEAPMISQLHELFLSRSLKKSVNFKIISGLLNGISDIQMIFTDLKNEWVNKTVDGQAYNLGKALNQLKTLGNNAQQVDLSIVPVEEKIFKDVSNLYQKVNSLKDLTVIVRPLIGTVTGIEIPQSAIRIPAIDVIGQLIDKMKLLSSKLAALEILVHLSKTLRSAKNTIKLEKMKNITTAAEGKLELFKKSSDFKDIYKLILPAKKAAQKLKEAPTITETVTKIQTSFGNLTTFVDDLKSFLDDIKFLENIKGIDSLKPVIEVIRDYRDPKLFKKVDLSTLIGHLPKLKSTLKVLGDYIKGIKTSKHMETEALSTFTNISVGSQVVGMATRGITNMQMMSSQTVDLKIVKELKAVIDEEMKKHQLNPSDVKNLNSLDGLEDELNRIKTAISDFKKSVKPVKSFKLSNYSGFFQDAKKVPGIKINLPAIIGSVEKLKDRLSTRRRRSASASQLDTLLSLLRSLQIYDSAKFSKAFDDSAKSLQALDTSFTAYSKATSKLQGQKGSQSPRSPGSSPTKELSFLENDGEEFKITHHQVLDWNGLNALEDHRGAGLAAMFLMKYETTAIVHCVDGVSRSAVLAGMIIGFQKIIETRGDMNVADLIDDLRKQRAMAITSGLELAFVDAGIFLLFKRMMNNFEEEYPEDLKQMLKDAVQYYKLIAGYQVQQRDNYFKKLDNMGKKQMNQKKSTEEGVDKSKEQGKDATVMKEKSPLAKVN”: the “soluble on expression in E. coli” value is on record as “not soluble”. The entry for “MQNAIKTDASNSTVEARDEEPVAANDNKPASNPGTSVTEDSVAYIFASTYRDTLRFCHSTGAWFEWDGSYWRRNEVGLAAHHVRVMARDMSQGLSPKALATIRKRSFASGVEGFARNDPTFAVTIEAWDRDPFLLGTPDGTVDLRTGKMRAADPADGITKLTSTAPSAQADCPLWLRFLQDATGGDGEMIRFLQQWCGYCLTGDTREHALVFVHGDGGNGKSVFLNTTSYILHDYATTASMDTFVASRSDRHPTDLAMLRGARLVSASETEEGRAWAESRIKQMTGGDAISARFMRQDFFTFQPQFKLFVVGNHQPALHSVDAAARRRFNIVPFTRKPTKPDRELEAKLRGEAPAILRWMVDGCRDWQRNGLVRPASIVEATETYFAEQDTFGQWLKDACRVEPDNRSISDFVADLFKSWTDYAEASGERPGSQKGFVQSLTKSGFKKGQRVRGGQLYIGLQLLRQAEKEPSVRDLEHHHHHH” is “soluble”; for “MQNHVISLASAAERRAHIAATFGVRGIPFQFFDALMPSEELNRMMAELVPGLAKQHLLSEVEKACFMSHAVLWKQALDEGLPYVAVFEDDVLLGKDAEKFLAEDTWLEERFDKDSAFIVRLETMFAKVIVRPDKVLNYENRSFPLLESEHWGTAGYIISREAMRFFLERFAVLPAEWIKAVDWMMFTYFFDKEGMPVYQVNPALCTQELHYAKFLSKNSMLGSDLEKDREQERRHRRSLKVMFDLKRALGKFGREKKKRMERQRQAELEKAYGRRVISFK” it is “not soluble”.

For the sequence “MQNIHKIKQDMCDIGRRIYNRQFAAANDGNITVRVSENEVLCTPTMHCKGYLTPDDISMIDMTGKQIAGRKKRSSEALLHLEIYKQRADIKSVVHCHPPHATAFAIAREPIPQCILPEVEVFLGDVPITKYETPGGQAFADTIIPFVEKTNVMILANHGTVSYGESVERAYWWTEILDSYCRMLLLAKQLGNVSYLDETKSRELLELKDKWGFKDPRNTSEYEDCDICANDIFRDSWKDSGVERRAFAPPPPIKTSGSASSAPAGVDEEQLVKLITNEVMRQMKASS”, the “soluble on expression in E. coli” value is recorded as “not soluble”. Consider “MQPKLIILRGNSGSGKTTIANALHQCLKEQSLLISQDVVRREMLRVKDETGNLSIALLKQLVAFGYQECQYVIVEGIFQKAIYHSFFQEIIHLFEGNVQVYYFDISFEETLKRHSQRNKNQEFGVVEMKRWWLPEDYLGFPGEQRLSEQLSEKQIIRQILADIQ”, for which the “soluble on expression in E. coli” value is recorded as “not soluble”. Then “MQQHEIRRFVERYFAANGCTFVEASDDYLTVQLTAEMDKELMNRPFYWHYIERTGGVPQPMRLTLITRASERTDKLKGERLHFGAPRLHQLFRSAQKRGSFIRLYEEPNAPLDGNAALHPWLGMNVTISYECDRKKDEIVSLGLHLISGTIVESFHERMRERRLTPKIPDYCFTISPLIKPRSGIGRLEQYIRSRIAADNHAWADEARRRWADDLALLDEFYKDCEEKPECYYIEKEALEKQYKPRITVSVINGGLFYLLPRSS”, with “not soluble”. The entry for “MQRERTAESSLRVISKEKNSITVEMINYDNTLLRTLVEEILKDDQVDEARYYIKHPVIDNPQIYVRVKSGKPQSAIKRAVRKLSKLYEDLGTQFQKEFQRYESDHMIKAVE” is “soluble”; for “MQRIRIIDSHTGGEPTRLVIGGFPDLGQGDMAERRRLLGERHDAWRAACILEPRGSDVLVGALLCAPVDPEACAGVIFFNNSGYLGMCGHGTIGLVASLAHLGRIGPGVHRIETPVGEVEATLHEDGSVSVRNVPAYRYRRQVSVEVPGIGRVSGDIAWGGNWFFLVAGHGQRLAGDNLDALTAYTVAVQQALDDQDIRGEDGGAIDHIELFADDPHADSRNFVLCPGKAYDRSPCGTGTSAKLACLAADGKLLPGQPWRQASVIGSQFEGRYEWLDGQPGGPIVPTIRGRAHVSAEATLLLADDDPFAWGIRR” it is “soluble”; for “MQRKLATWAATDPSLRIQRLLRLITQPEWLAEAARITLSSKGAHTPGVDGVNKTMLQARLAVELQILRDELLSGHYQPLPARRVYIPKSNGKLRPLGIPALRDRIVQRAMLMAMEPIWESDFHTLSYGFRPERSVHHAIRTVKLQLTDCGETRGRWVIEGDLSSYFDTVHHRLLMKAVRRRISDARFMTLLWKTIKAGHIDVGLFRAASEGVPQGGVISPLLSNIMLNEFDQYLHERYLSGKARKDRWYWNNSIQRGRSTAVRENWQWKPAVAYCRYADDFVLIVKGTKAQVEAIREECRGVLEGSLKLRLNMDKTKIPHVNDGFIFLGHRLIRKRSRYGEMRVVSTIPQEKARNFAASLTALLWKVRISGEILLGLEHHHHHH” it is “not soluble”. The entry for “MQRTLGEIMKIYFATGNPNKIKEANIILKDLKDVEIEQIKISYPEIQGTLEEVAEFGAKWVYNILKKPVIVEDSGFFVEALNGFPGTYSKFVQETIGNEGILKLLEGKDNRNAYFKTVIGYCDENGVRLFKGIVKGRVSEEIRSKGYGFAYDSIFIPEEEERTFAEMTTEEKSQISHRKKAFEEFKKFLLDRI” is “soluble”; for “MQSIEHFEPQFLSFIQKEMVQDLAHDINHVLRVVSMAKRLCVEEKGKEAVVIPAAYLHDCFSFAKDHSNRSQSSAFAADKALVFLKEIGYPSEYYDEIHHAIVAHSFSAKVETRTLEAKIVQDADRLDALGAIGIARCLQVSTKLNSPLYSIDDPFCYHREPNDKAYTIDHFYAKLLTLANTMKTTSAVAEAEKRTQYMRDYLTQLESELLEHHHHHH” it is “soluble”. For “MQSIPIKNVGESRLVDPFQRQYYYLRLSITDQCNFRCTYCLPDGYQPEANKPSFLTLKEITHLAQAFAEMGTEKIRLTGGEPTLRKDFISIAESITNIDGIRQLAVTTNGYRMAKDVADWKKAGITSINVSVDSLDPKMFHQITGINKFDDVMRGIDRAFEVGYNKVKVNSVLMKNLNDKEFEQFLAWVKDRPIQMRFIELMQTGEMDSFFDKFHLSGQVLADKLLKNGWTLQHKSHTDGPAKVFTHPDYAGEIGLIMPYEKNFCASCNRLRVSAKGKLHLCLFGEEGIELRDLLQSHEQQGILQARIFAALQGKREHHYLHIGDTGVRNHLASIGGMGHHHHHHSH”, the “soluble on expression in E. coli” value was “not soluble”.

“MQSVTPTSQYLKALNEGSHQPDDVQKEAVSRLEIIYQELINSRPPAPRTSGLMARVGKLWGKREDTKHTPVRGLYMWGGVGRGKTWLMDLFYQSLPGERKQRLHFHRFMLRVHEELTALQGQTDPLEIIADRFKAETDVLCFDEFFVSDITDAMLLGGLMKALFTRGITLVATSNIPPDELYRNGLQRARFLPAIDAIKQHCDVMNVDAGVDYRLRTLTQAHLWLSPLNDETRAQMDKLWLALAGVKRENSPTLEINHRPLATMGVENQTLAVSFTTLCVDARSQHDYIALSRLFHTVMLFDVPVMTRLMESEARRFIALVDEFYERHVKLVVSAEVPLYEIYQGERLKFEFQRCLSRLQEMQSEEYLKREHLAGLEHHHHHH”: the “soluble on expression in E. coli” value is “soluble”.

Take “MQTKLSTWTPLNHQLSNAHVFEERRNLLGKWFEKWTDSQRKQVLQDFFSRCSAGQLKHLRQTLSSWVPEETLDFTTVLPRVISLYIFSYLDPRSLCRCAQVSWHWKNLAELDQLWMPKCLKLGWCITFTPTPFEQGVWKRQYIETVQELHISRPKVPVKEEFIVPDVKVIGSETEGSLPLTGHRDLLGLQGRSKNGNDLGKSAKGLPPWRDSDRHPTDTIRFNYLDNLHPGEHARKALLKTRQEDTIKAPSHSTYKLRKAKSLMFLSLDLSTAGKPSHNRPKWAARNLEALPADKDSIKRISQTSQWNAGIRPGPVRPPVPRLSKEGFRASQRSHRSPPTVTLFEGQP”: the “soluble on expression in E. coli” value was “soluble”.

As to “MQTLERFFLFVTGDQPERFEKANSSCADSVILDLENAVSSEKKIIARENALNFMSNDEKVLIAVRAKIVITSRLAGSYPSVDGITTEFMKNELTIQNAIHSCKMGFSGKVCIHPPQISHVNRAFSYLKQEIEWVPQIMRLAQYPHGAFSHEGQMVDKPLLEKAKRILAHSILEHHHHHH”, the “soluble on expression in E. coli” value was “not soluble”. Then “MQTSLRAPTLEKVSSRPRGSRRRSRKTFTAKLTSPTFRRWSSTEKWTVASREIGSARKRFCSTRTPGAAIHSSNRSRSALRYDHIDHRALARKSPHLMPPTFIKEEIMDDELDEVKEEVVSVGEAALPTPKVELNMDHPEKDLIISISVYLGYTRTLQYHEIRLGRLMKITDRLELTGDHTLRDLKNAFSCPIDFSFSDDFSEKKPSFKDMAKNKWPSTMFFIHDTDESHVNVEFPRRLVERNFRRIACDTCKEASAHWMIVDHDNLLPNSPGYLCSSCYKEFCFDVNGNKVCQFKAVPYCDRKDIGDGRQFFTELDL”, with “not soluble”. In the case of “MQVEVGQIVNTHGIKGEVKVKSNSDFTDTRFQPGEVLTVNHQNHEEQLTVLSYRVHKGFHMLKFEGINNINDVEQYKGDYLYQERDHEDIELAENEYYYSDIIGSTVFDNDNQPIGRVINIFETGANDVWVVKGEKEYLIPYIADVVKEIDIENKTIRITPMEGLLDLEHHHHHH”, the “soluble on expression in E. coli” value is recorded as “soluble”. The entry for “MQVFCFTPKGEVVKLPRGATPIDFAFAIHTRIGMACVGAKVDHMRVPLWTRLKNGQSVEVITAEGQSPQATWLEHHHHHH” is “not soluble”; for “MQVIPLKPLDNKTLEEIGLDWHTNDDMSSYIADEMVVVSQKEADAYYDACNELYDMFVETAEEAIQNDRFFELDIPNALIPMIKQSFEEEVHWHIYGRFDLAGGLDGKPIKLLEFNADTPTMLYETAVIQWALLKANGYDENKQFNNLYEALGENFKRMVTLGEDTSRFEEMYEGWKILFSSVRGNIEEERTMRFLQDAAQSVGFETDFSYIDEVEFNIEEGVFKNGLNYEFLFKLIPWENIAIDEPELALLMQGMMENKNTIFLNPAYTILFQSKRFLKLLWDRYPNHPLLLETSYEPLANKKQIKKVAFGREGANSEIFEASMQSLLKTDGVYSNHKPVYQEFYELNSHNGLYYQPNVFFAYESCALGFRKGGLILDNFSKFVSHRLQ” it is “not soluble”.
